According to article PMC4703963:
Blank lines part the entries; values can stand above or below the binder they belong to.

Key:
Conditions in all cases: remark: other sources report otherwise
[1] = target: Flag-tagged catalytic domain of PHD2 (181-426) (human), Q9GZT9; assay: non-reducing SDS-PAGE with immunoblot; total cell lysates (1% IGEPAL, 150 mM NaCl, 50 mM Tris-HCl pH 7.9, no reducing agent) in sample buffer without β-ME; cells treated with H2O2 (50-200 uM), T-hydro (1-3 uM), diamide (0.1-1 mM), 10% FBS or expressing H-ras V12
[2] = target: Prolyl hydroxylase domain protein 2 (PHD2), endogenous (human (endogenous in U2OS, H2030, A549)), Q9GZT9; assay: as above
[3] = target: Wild-type HA-PHD2 purified from HEK293T cells (human), Q9GZT9; assay: non-reducing SDS-PAGE with immunoblot; tagged PHD2 affinity-purified (Flag or HA gel, peptide elution) from H2O2-treated HEK293T cells, run without DTT
[4] = target: Flag-tagged PHD2 purified from HEK293T cells (human), Q9GZT9; assay: as above
[5] = target: Flag-tagged PHD2 (with an HA-tagged copy of PHD2 in the co-immunoprecipitation) (human), Q9GZT9; assay: non-reducing SDS-PAGE with immunoblot; total cell lysates (1% IGEPAL, 150 mM NaCl, 50 mM Tris-HCl pH 7.9, no reducing agent) in sample buffer without β-ME; cells treated with H2O2 (50-200 uM), T-hydro (1-3 uM), diamide (0.1-1 mM), 10% FBS or expressing H-ras V12

stoichiometry N [1]: 2
B1: Flag-tagged catalytic domain of PHD2 (181-426), Q9GZT9 181-426 (domain or fragment)
chain: PNGQTKPLPALKLALEYIVPCMNKHGICVVDDFLGKETGQQIGDEVRALHDTGKFTDGQLVSQKSDSSKDIRGDKITWIEGKEPGCETIGLLMSSMDDLIRHCNGKLGSYKINGRTKAMVACYPGNGTGYVRHVDNPNGDGRCVTCIYYLNKDWDAKVSGGILRIFPEGKAQFADIEPKFDRLLFFWSDRRNPHEVQPAYATRYAITVWYFDADERARAKVKYLTGEKGVRVELNKPSDSVGKDVF

stoichiometry N [2]: 2
B2: Prolyl hydroxylase domain protein 2 (PHD2), endogenous, Q9GZT9 1-426 (natural protein)
chain: MANDSGGPGGPSPSERDRQYCELCGKMENLLRCSRCRSSFYCCKEHQRQDWKKHKLVCQGSEGALGHGVGPHQHSGPAPPAAVPPPRAGAREPRKAAARRDNASGDAAKGKVKAKPPADPAAAASPCRAAAGGQGSAVAAEAEPGKEEPPARSSLFQEKANLYPPSNTPGDALSPGGGLRPNGQTKPLPALKLALEYIVPCMNKHGICVVDDFLGKETGQQIGDEVRALHDTGKFTDGQLVSQKSDSSKDIRGDKITWIEGKEPGCETIGLLMSSMDDLIRHCNGKLGSYKINGRTKAMVACYPGNGTGYVRHVDNPNGDGRCVTCIYYLNKDWDAKVSGGILRIFPEGKAQFADIEPKFDRLLFFWSDRRNPHEVQPAYATRYAITVWYFDADERARAKVKYLTGEKGVRVELNKPSDSVGKDVF

stoichiometry N [3]: 2
B3: Wild-type HA-PHD2 purified from HEK293T cells, Q9GZT9 1-426 (natural protein)
chain: B2 chain

stoichiometry N [4]: 2
B4: Flag-tagged PHD2 purified from HEK293T cells, Q9GZT9 1-426 (natural protein)
chain: B2 chain

stoichiometry N [5]: 2
B5: Flag-tagged PHD2 (with an HA-tagged copy of PHD2 in the co-immunoprecipitation), Q9GZT9 1-426 (natural protein)
chain: B2 chain
